Measured values: patent US20150087577A1 (POLYPHOR, published 2015)
Bridges are numbered along the chain shown (N, C = ends). [ ]: non-standard residue; d: D form. Phe(4-F) = N[C@@H](Cc1ccc(F)cc1)C(=O)O; 2Nal = N[C@@H](Cc1ccc2ccccc2c1)C(=O)O; Cit = NC(=O)NCCC[C@H](N)C(=O)O

Biological target: human CXCR4 (human, UniProt P61073 1-352)
Experiment: cell-based or functional assay

human CXCR4, sequence (P61073 whole entry): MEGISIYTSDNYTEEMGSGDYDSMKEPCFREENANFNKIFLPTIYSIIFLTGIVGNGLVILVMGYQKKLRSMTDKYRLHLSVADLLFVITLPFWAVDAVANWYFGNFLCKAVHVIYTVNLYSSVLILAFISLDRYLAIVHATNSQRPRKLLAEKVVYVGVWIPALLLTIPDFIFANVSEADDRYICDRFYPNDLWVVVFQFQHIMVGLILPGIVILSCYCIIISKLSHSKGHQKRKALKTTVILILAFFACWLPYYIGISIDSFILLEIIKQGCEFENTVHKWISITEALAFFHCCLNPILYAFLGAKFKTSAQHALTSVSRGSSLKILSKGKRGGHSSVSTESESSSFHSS

| IC50 (nM) Ca2+ assay (method 2) [nM] | IC50 (nM) Ca2+ assay (method 1) [nM] | Binder |
| --- | --- | --- |
| 19.5 | – | cyclo(YRHCRG[dP]RR[2Nal]CYQK[dP]P) (disulfide 4-11; SMILES N=C(N)NCCC[C@@H]1NC(=O)[C@@H]2CSSC[C@H](NC(=O)[C@H](Cc3ccc4ccccc4c3)NC(=O)[C@H](CCCNC(=N)N)NC(=O)[C@H](CCCNC(=N)N)NC(=O)[C@H]3CCCN3C(=O)CNC1=O)C(=O)N[C@@H](Cc1ccc(O)cc1)C(=O)N[C@@H](CCC(N)=O)C(=O)N[C@@H](CCCCN)C(=O)N1CCC[C@@H]1C(=O)N1CCC[C@H]1C(=O)N[C@@H](Cc1ccc(O)cc1)C(=O)N[C@@H](CCCNC(=N)N)C(=O)N[C@@H](Cc1c[nH]cn1)C(=O)N2) [Example 70] |
| 2.4 | – | cyclo(TR[Cit]CRG[dP]RR[2Nal]CYQK[dP]P) (disulfide 4-11; SMILES C[C@@H](O)[C@@H]1NC(=O)[C@@H]2CCCN2C(=O)[C@H]2CCCN2C(=O)[C@H](CCCCN)NC(=O)[C@H](CCC(N)=O)NC(=O)[C@H](Cc2ccc(O)cc2)NC(=O)[C@@H]2CSSC[C@H](NC(=O)[C@H](CCCNC(N)=O)NC(=O)[C@H](CCCNC(=N)N)NC1=O)C(=O)N[C@@H](CCCNC(=N)N)C(=O)NCC(=O)N1CCC[C@@H]1C(=O)N[C@@H](CCCNC(=N)N)C(=O)N[C@@H](CCCNC(=N)N)C(=O)N[C@@H](Cc1ccc3ccccc3c1)C(=O)N2) [Example 67] |
| 8.8 | – | cyclo(YRWCRG[dP]RR[2Nal]CYQK[dP]P) (disulfide 4-11; SMILES N=C(N)NCCC[C@@H]1NC(=O)[C@@H]2CSSC[C@H](NC(=O)[C@H](Cc3ccc4ccccc4c3)NC(=O)[C@H](CCCNC(=N)N)NC(=O)[C@H](CCCNC(=N)N)NC(=O)[C@H]3CCCN3C(=O)CNC1=O)C(=O)N[C@@H](Cc1ccc(O)cc1)C(=O)N[C@@H](CCC(N)=O)C(=O)N[C@@H](CCCCN)C(=O)N1CCC[C@@H]1C(=O)N1CCC[C@H]1C(=O)N[C@@H](Cc1ccc(O)cc1)C(=O)N[C@@H](CCCNC(=N)N)C(=O)N[C@@H](Cc1c[nH]c3ccccc13)C(=O)N2) [Example 73] |
| 19.5 | – | cyclo(YRPCRG[dP]RR[2Nal]CYQK[dP]P) (disulfide 4-11; SMILES N=C(N)NCCC[C@@H]1NC(=O)[C@@H]2CSSC[C@H](NC(=O)[C@H](Cc3ccc4ccccc4c3)NC(=O)[C@H](CCCNC(=N)N)NC(=O)[C@H](CCCNC(=N)N)NC(=O)[C@H]3CCCN3C(=O)CNC1=O)C(=O)N[C@@H](Cc1ccc(O)cc1)C(=O)N[C@@H](CCC(N)=O)C(=O)N[C@@H](CCCCN)C(=O)N1CCC[C@@H]1C(=O)N1CCC[C@H]1C(=O)N[C@@H](Cc1ccc(O)cc1)C(=O)N[C@@H](CCCNC(=N)N)C(=O)N1CCC[C@H]1C(=O)N2) [Example 74] |
| 2.7 | – | cyclo(YRICRG[dP]RR[2Nal]CYQK[dP]P) (disulfide 4-11; SMILES CC[C@H](C)[C@@H]1NC(=O)[C@H](CCCNC(=N)N)NC(=O)[C@H](Cc2ccc(O)cc2)NC(=O)[C@@H]2CCCN2C(=O)[C@H]2CCCN2C(=O)[C@H](CCCCN)NC(=O)[C@H](CCC(N)=O)NC(=O)[C@H](Cc2ccc(O)cc2)NC(=O)[C@@H]2CSSC[C@H](NC1=O)C(=O)N[C@@H](CCCNC(=N)N)C(=O)NCC(=O)N1CCC[C@@H]1C(=O)N[C@@H](CCCNC(=N)N)C(=O)N[C@@H](CCCNC(=N)N)C(=O)N[C@@H](Cc1ccc3ccccc3c1)C(=O)N2) [Example 71] |
| 3.9 | – | cyclo(IR[Cit]CRG[dP]RR[2Nal]CYQK[dP]P) (disulfide 4-11; SMILES CC[C@H](C)[C@@H]1NC(=O)[C@@H]2CCCN2C(=O)[C@H]2CCCN2C(=O)[C@H](CCCCN)NC(=O)[C@H](CCC(N)=O)NC(=O)[C@H](Cc2ccc(O)cc2)NC(=O)[C@@H]2CSSC[C@H](NC(=O)[C@H](CCCNC(N)=O)NC(=O)[C@H](CCCNC(=N)N)NC1=O)C(=O)N[C@@H](CCCNC(=N)N)C(=O)NCC(=O)N1CCC[C@@H]1C(=O)N[C@@H](CCCNC(=N)N)C(=O)N[C@@H](CCCNC(=N)N)C(=O)N[C@@H](Cc1ccc3ccccc3c1)C(=O)N2) [Example 65] |
| 3.9 | – | cyclo(YRYCRG[dP]RR[2Nal]CYQK[dP]P) (disulfide 4-11; SMILES N=C(N)NCCC[C@@H]1NC(=O)[C@@H]2CSSC[C@H](NC(=O)[C@H](Cc3ccc4ccccc4c3)NC(=O)[C@H](CCCNC(=N)N)NC(=O)[C@H](CCCNC(=N)N)NC(=O)[C@H]3CCCN3C(=O)CNC1=O)C(=O)N[C@@H](Cc1ccc(O)cc1)C(=O)N[C@@H](CCC(N)=O)C(=O)N[C@@H](CCCCN)C(=O)N1CCC[C@@H]1C(=O)N1CCC[C@H]1C(=O)N[C@@H](Cc1ccc(O)cc1)C(=O)N[C@@H](CCCNC(=N)N)C(=O)N[C@@H](Cc1ccc(O)cc1)C(=O)N2) [Example 72] |
| 1.8 | – | cyclo(YRRCRG[dP]RR[2Nal]CYQK[dP]P) (disulfide 4-11; SMILES N=C(N)NCCC[C@@H]1NC(=O)[C@@H]2CSSC[C@H](NC(=O)[C@H](Cc3ccc4ccccc4c3)NC(=O)[C@H](CCCNC(=N)N)NC(=O)[C@H](CCCNC(=N)N)NC(=O)[C@H]3CCCN3C(=O)CNC1=O)C(=O)N[C@@H](Cc1ccc(O)cc1)C(=O)N[C@@H](CCC(N)=O)C(=O)N[C@@H](CCCCN)C(=O)N1CCC[C@@H]1C(=O)N1CCC[C@H]1C(=O)N[C@@H](Cc1ccc(O)cc1)C(=O)N[C@@H](CCCNC(=N)N)C(=O)N[C@@H](CCCNC(=N)N)C(=O)N2) [Example 69] |
| 7 | – | cyclo(YR[Cit]CRG[dP]RR[2Nal]CYNK[dP]P) (disulfide 4-11; SMILES N=C(N)NCCC[C@@H]1NC(=O)[C@@H]2CSSC[C@H](NC(=O)[C@H](Cc3ccc4ccccc4c3)NC(=O)[C@H](CCCNC(=N)N)NC(=O)[C@H](CCCNC(=N)N)NC(=O)[C@H]3CCCN3C(=O)CNC1=O)C(=O)N[C@@H](Cc1ccc(O)cc1)C(=O)N[C@@H](CC(N)=O)C(=O)N[C@@H](CCCCN)C(=O)N1CCC[C@@H]1C(=O)N1CCC[C@H]1C(=O)N[C@@H](Cc1ccc(O)cc1)C(=O)N[C@@H](CCCNC(=N)N)C(=O)N[C@@H](CCCNC(N)=O)C(=O)N2) [Example 77] |
| 3.5 | – | cyclo(YRECRG[dP]RR[2Nal]CYQK[dP]P) (disulfide 4-11; SMILES N=C(N)NCCC[C@@H]1NC(=O)[C@@H]2CSSC[C@H](NC(=O)[C@H](Cc3ccc4ccccc4c3)NC(=O)[C@H](CCCNC(=N)N)NC(=O)[C@H](CCCNC(=N)N)NC(=O)[C@H]3CCCN3C(=O)CNC1=O)C(=O)N[C@@H](Cc1ccc(O)cc1)C(=O)N[C@@H](CCC(N)=O)C(=O)N[C@@H](CCCCN)C(=O)N1CCC[C@@H]1C(=O)N1CCC[C@H]1C(=O)N[C@@H](Cc1ccc(O)cc1)C(=O)N[C@@H](CCCNC(=N)N)C(=O)N[C@@H](CCC(=O)O)C(=O)N2) [Example 75] |
| 1.1 | – | cyclo(ER[Cit]CRG[dP]RR[2Nal]CYQK[dP]P) (disulfide 4-11; SMILES N=C(N)NCCC[C@@H]1NC(=O)[C@@H]2CSSC[C@H](NC(=O)[C@H](Cc3ccc4ccccc4c3)NC(=O)[C@H](CCCNC(=N)N)NC(=O)[C@H](CCCNC(=N)N)NC(=O)[C@H]3CCCN3C(=O)CNC1=O)C(=O)N[C@@H](Cc1ccc(O)cc1)C(=O)N[C@@H](CCC(N)=O)C(=O)N[C@@H](CCCCN)C(=O)N1CCC[C@@H]1C(=O)N1CCC[C@H]1C(=O)N[C@@H](CCC(=O)O)C(=O)N[C@@H](CCCNC(=N)N)C(=O)N[C@@H](CCCNC(N)=O)C(=O)N2) [Example 68] |
| 5.6 | – | cyclo(YR[Cit]CRG[dP][Phe(4-F)]R[2Nal]CYQK[dP]P) (disulfide 4-11; SMILES N=C(N)NCCC[C@@H]1NC(=O)[C@@H]2CSSC[C@H](NC(=O)[C@H](Cc3ccc4ccccc4c3)NC(=O)[C@H](CCCNC(=N)N)NC(=O)[C@H](Cc3ccc(F)cc3)NC(=O)[C@H]3CCCN3C(=O)CNC1=O)C(=O)N[C@@H](Cc1ccc(O)cc1)C(=O)N[C@@H](CCC(N)=O)C(=O)N[C@@H](CCCCN)C(=O)N1CCC[C@@H]1C(=O)N1CCC[C@H]1C(=O)N[C@@H](Cc1ccc(O)cc1)C(=O)N[C@@H](CCCNC(=N)N)C(=O)N[C@@H](CCCNC(N)=O)C(=O)N2) [Example 76] |
| 3.8 | – | cyclo(WR[Cit]CRG[dP]RR[2Nal]CYQK[dP]P) (disulfide 4-11; SMILES N=C(N)NCCC[C@@H]1NC(=O)[C@@H]2CSSC[C@H](NC(=O)[C@H](Cc3ccc4ccccc4c3)NC(=O)[C@H](CCCNC(=N)N)NC(=O)[C@H](CCCNC(=N)N)NC(=O)[C@H]3CCCN3C(=O)CNC1=O)C(=O)N[C@@H](Cc1ccc(O)cc1)C(=O)N[C@@H](CCC(N)=O)C(=O)N[C@@H](CCCCN)C(=O)N1CCC[C@@H]1C(=O)N1CCC[C@H]1C(=O)N[C@@H](Cc1c[nH]c3ccccc13)C(=O)N[C@@H](CCCNC(=N)N)C(=O)N[C@@H](CCCNC(N)=O)C(=O)N2) [Example 66] |
| – | 2540 | cyclo(YR[Cit]VRRR[2Nal]FY[Cit]K[dP]P) (SMILES CC(C)[C@@H]1NC(=O)[C@H](CCCNC(N)=O)NC(=O)[C@H](CCCNC(=N)N)NC(=O)[C@H](Cc2ccc(O)cc2)NC(=O)[C@@H]2CCCN2C(=O)[C@H]2CCCN2C(=O)[C@H](CCCCN)NC(=O)[C@H](CCCNC(N)=O)NC(=O)[C@H](Cc2ccc(O)cc2)NC(=O)[C@H](Cc2ccccc2)NC(=O)[C@H](Cc2ccc3ccccc3c2)NC(=O)[C@H](CCCNC(=N)N)NC(=O)[C@H](CCCNC(=N)N)NC(=O)[C@H](CCCNC(=N)N)NC1=O) [Example 4] |
